This experiment concerns the target T1, QE-Bgn (bacterially expressed recombinant human biglycan core) (human, UniProt P21810 38-368).
T1 construct: Produced in E. coli M15[pREP4]; contains no chondroitin sulfate side chains; tested as lysate of induced bacteria on a blot; also called QE-BIG; bacterially-expressed biglycan
T1 sequence: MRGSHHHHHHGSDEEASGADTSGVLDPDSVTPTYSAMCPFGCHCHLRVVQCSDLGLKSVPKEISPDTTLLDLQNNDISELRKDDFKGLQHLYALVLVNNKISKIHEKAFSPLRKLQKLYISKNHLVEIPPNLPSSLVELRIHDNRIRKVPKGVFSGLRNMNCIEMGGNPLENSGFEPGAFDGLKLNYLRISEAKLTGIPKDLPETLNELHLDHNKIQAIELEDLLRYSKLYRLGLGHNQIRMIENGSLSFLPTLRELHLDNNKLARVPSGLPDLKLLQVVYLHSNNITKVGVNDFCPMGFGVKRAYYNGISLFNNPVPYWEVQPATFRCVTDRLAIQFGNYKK
Put plainly: dystroglycan blot overlay on lysate of induced bacteria (FIG. 7).

B1: α-dystroglycan (dystroglycan as named in the overlay assays; fragment not named at the place) (receptor, human, UniProt Q14118 345-653, looked up)
chain: PAIAPPTETMAPPVRDPVPGKPTVTIRTRGAIIQTPTLGPIQPTRVSEAGTTVPGQIRPTMTIPGYVEPTAVATPPTTTTKKPRVSTPKPATPSTDSTTTTTRRPTKKPRTPRPVPRVTTKVSITRLETASPPTRIRTTTSGVPRGGEPNQRPELKNHIDRVDAWVGTYFEVKIPSDTFYDHEDTTTDKLKLTLKLREQQLVGEKSWVQFNSNSQLMYGLPDSSHVGKHEYFMHATDKGGLSAVDAFEIHVHRRPQGDRAPARFKAKFVGDPALVLNDIHKKIALVKKLAFAFGDRNCSTITLQNITRG
notes: also called alpha-dystroglycan
Regarding B1, the binding result is given as “no binding”.

Values taken from patent US20040063627A1 (BROWN UNIVERSITY RESEARCH FOUNDATION, published 2004).
